Entries after “also recorded” stand apart in the source; their conditions may differ.
Test system: gastric NET with lymph node and hepatic metastases
Experiment: PET/CT imaging in a NET patient
Assay type: in vivo, human
Conditions: [68Ga]Ga-DOTA-NOC 1 h pi, [68Ga]Ga-DATA5m-LM4 10 min–3 h pi
Excerpt: After a preceding PET/CT imaging with [^68Ga]Ga-DOTA-NOC ([^68Ga]Ga-DOTA-[1-Nal^3]octreotide), the patient underwent first PET/CT with [^68Ga]Ga-DATA^5m-LM4 on a dedicated GE Discovery 710 × 128 Slice PET/CT Scanner (GE HealthCare Technologies Inc.,/GE Healthcare, Chicago, IL, USA), with a 40 mm detector at a 0.35 s rotation speed and a 128-slice CT scanner. The images were corrected for random and scatter counts, decay correction and dead time correction. PET images were reconstructed with iterative reconstruction using ordered subset expectation maximization algorithm (OSEM) (2 iterations, 24 subsets). They were processed and analyzed with a dedicated commercially available workstation (GE Xeleris). Further details on the patient preparation, scan and data acquisition protocol are included in the Supplementary Materials.
Radiosynthesis of [68Ga]Ga-DATA5m-LM4 and [177Lu]Lu-AAZTA5-LM4 for Patient […]
For radiolabeling of DATA5m-LM4 with Ga-68, [68Ga]GaCl3 (200 MBq) obtained from a commercial [68Ge]Ge/[68Ga]Ga-generator (ITM Isotope Technologies Munich SE, Garching, Germany) was added in a vial containing a solution of DATA5m-LM4 (50 µg, 32.5 nmol) in 500 µL of 1 M sodium acetate buffer pH 4.5. The reaction mixture was heated for 15 min at 95 °C, affording [68Ga]Ga-DATA5m-LM4 in a radiochemical purity […]

[^68Ga]Ga-DOTA-[1-Nal^3]octreotide [[^68Ga]Ga-DOTA-NOC]
uptake in liver metastases on PET/CT: mild to negligible uptake; also recorded: weak uptake
